Values quoted from earlier work as cited in US7452531B2, “Compositions and methods for tumor-targeted delivery of effector molecules” (Vion Pharmaceuticals, Inc., priority 1999, dated 2008).

System: primary tumors
Conditions: 100 mg/kg/day

In the case of angiostatin, the toxic side effects is listed as “without toxic side effects” and the tumor growth is listed as “strong inhibition of tumor growth”.
